The text below walks through data of patent publication US20160102129A1 (Novo Nordisk, published 2016).

*1 amine or outer side, *2 acyl side, *3 side chain or, on linkers, in order; H or OH if unused. Where no end group is shown, it is not given here. Side-chain parts run from the residue outwards. [ ]: non-standard residue; d: D form. The star is where a group is joined. C20 diacid = O=C(O)CCCCCCCCCCCCCCCCCCC(=O)*; C18 diacid = O=C(O)CCCCCCCCCCCCCCCCC(=O)*; C16 diacid = O=C(O)CCCCCCCCCCCCCCC(=O)*; γGlu = O=C(O)[C@H](CCC(=O)[*:2])N[*:1]; C14 diacid = O=C(O)CCCCCCCCCCCCC(=O)*; Desaminohistidyl = O=C(CCc1c[nH]cn1)*; AEEA = NCCOCCOCC(=O)O; Aib = CC(C)(N)C(=O)O

The target in experiment [1] is T1, human glucagon receptor (human, UniProt P47871 26-477).
T1 construct: whole, on cells; reporter assay on whole cells
T1 sequence (P47871 26-477): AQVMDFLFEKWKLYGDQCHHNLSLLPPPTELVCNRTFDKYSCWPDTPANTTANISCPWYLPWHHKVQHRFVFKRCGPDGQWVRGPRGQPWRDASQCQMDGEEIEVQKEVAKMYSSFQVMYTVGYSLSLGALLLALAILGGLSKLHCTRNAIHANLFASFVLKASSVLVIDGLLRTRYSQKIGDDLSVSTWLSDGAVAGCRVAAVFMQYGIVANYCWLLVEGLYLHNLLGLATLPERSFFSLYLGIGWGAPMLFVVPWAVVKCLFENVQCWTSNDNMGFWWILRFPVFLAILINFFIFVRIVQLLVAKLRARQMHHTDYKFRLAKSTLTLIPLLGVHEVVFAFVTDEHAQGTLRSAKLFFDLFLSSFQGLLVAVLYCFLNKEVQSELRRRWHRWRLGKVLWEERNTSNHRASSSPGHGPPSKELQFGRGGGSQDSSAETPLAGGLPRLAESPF
Description: SPA displacement of [125I]-glucagon from human glucagon receptor BHK membranes. Here is the method: 1. For the receptor binding assay 50 μl of the assay buffer was added to each well of an assay plate. [0603] 2. Test compounds were serially diluted to give the following concentrations: 8×10EE-7 M, 8×10EE-8 M, 8×10EE-9 M, 8×10EE-10 M, 8×10EE-11 M, 8×10EE-12 M and 8×10EE-13 M. Twenty-five μl were added to appropriate wells in the assay plate. [0604] 3. Cell membrane aliquots were thawed and diluted to their working concentration. Fifty μl were added to each well in the assay plate. [0605] 4. WGA SPA beads were suspended in assay buffer at 20 mg/ml. The suspension was diluted to 10 mg/ml in assay buffer just prior to addition to the assay plate. Fifty μl were added to each well in the assay plate. [0606] 5. […] A 25 μl aliquot was reserved for measuring total counts/well. […] 6. The assay plate was incubated for 2 h at 25° C. [0608] 7. The assay plate was centrifuged for 10 min at 1500 rpm. [0609] 8. The assay plate was read in a Perkin Elmer TopCount NXT instrument.
(In general: In a radioligand displacement assay an active substance lowers the binding of a labelled ligand.)

Experiment [2] addresses T1, human glucagon receptor. Description: cell-based or functional assay.
Experiment [3] deals with T2, human GLP-1 receptor (human, UniProt P43220 24-463). As to the kind of experiment: cell-based or functional assay.
Experiment [4] concerns the target T2, human GLP-1 receptor. Description: SPA displacement of [125I]GLP-1(7-36)NH2 from hGLP-1R BHK membranes. The method, then:
The GLP-1 receptor binding of each derivatives were determined with competitive binding, displacing [¹²⁵I]GLP-1 bound to GLP-1 receptors expressed in cell membranes associated with wheat germ agglutinin (WGA) scintillation proximity assay (SPA) beads. Each derivative was added in a series of concentrations to isolated membranes comprising the human GLP-1 receptor and displacement of the labelled radioligand was monitored. The receptor binding was reported as the concentration at which half of the labelled ligand is displaced from the receptor, the IC⁵⁰ value.
1. For the receptor binding assay 50 μl of the assay buffer was added to each well of an assay plate. [0588] 2. Test compounds were serially diluted to give the following concentrations: 8×10EE-7 M, 8×10EE-8 M, 8×10EE-9 M, 8×10EE-10 M, 8×10EE-11 M, 8×10EE-12 M and 8×10EE-13 M. Twenty-five μl were added to appropriate wells in the assay plate. [0589] 3. Cell membrane aliquots were thawed and diluted to their working concentration. Fifty μl were added to each well in the assay plate. [0590] 4. WGA SPA beads were suspended in assay buffer at 20 mg/ml. The suspension was diluted to 10 mg/ml in assay buffer just prior to addition to the assay plate. Fifty μl were added to each well in the assay plate. [0591] 5. […] A 25 μl aliquot was reserved for measuring total counts/well. [0592] 6. The assay plate was incubated for 2 h at 30° C. [0593] 7. The assay plate was centrifuged for 10 min. [0594] 8. The assay plate was read in a Perkin Elmer TopCount NXT instrument.

B1: N^ε34-[(4S)-4-carboxy-4-[[2-[2-[2-[[2-[2-[2-[[(4S)-4-carboxy-4-[[(4S)-4-carboxy-4-(17-carboxyheptadecanoylamino)butanoyl]amino]butanoyl]amino]ethoxy]ethoxy]acet … (peptide)
peptide: [Desaminohistidyl][Aib]HGTFTSDVSKYLEARAAREFIAWLLKGGG
modifications: not fully specified (residue 28); printed as Nε34-[(4S)-4-carboxy-4-[[2-[2-[2-[[2-[2-[2-[[(4S)-4-carboxy-4-[[(4S)-4-carboxy-4-(17-carboxyheptadecanoylamino)butanoyl]amino]butanoyl]amino]ethoxy]ethoxy]acetyl]amino]ethoxy]ethoxy]acetyl]amino]butanoyl]-[Imp7,Aib8,His9,Lys18,Ala22,Arg23,Arg26,Leu33,Gly36]-GLP-1-(7-37)-peptide
B1: the concentration for half-maximal inhibition (IC50) in the experiment with human glucagon receptor [1] was determined as 3.7 nM; with human GLP-1 receptor [4], 0.3 nM. Besides, in the experiment with human glucagon receptor [2], the “EC50 GlucagonR [pM], CRE luciferase reporter gene assay” value (“EC50 GlucagonR [pM]” below) worked out at 39.4 pM. In addition, the “EC50 GLP-1R [pM], CRE luciferase reporter gene assay” value (shortened to “EC50 GLP-1R [pM]”) with human GLP-1 receptor [3] amounted to 2.2 pM.

For the molecule [Desaminohistidyl][Aib]HGTFTSDVSRYLEGRAAREFIAWLLK([γGlu-γGlu-AEEA-γGlu-γGlu-C18 diacid])GAG, the IC50 in the experiment with human glucagon receptor [1] turned out to be 18.8 nM; with human GLP-1 receptor [4] it was 1 nM. Also, the “EC50 GlucagonR [pM]” value in the experiment with human glucagon receptor [2] is 248 pM. The “EC50 GLP-1R [pM]” value with human GLP-1 receptor [3] amounted to 3 pM.

Consider [Desaminohistidyl][Aib]HGTFTSDVSRYLEGRAAREFIAWLLK([γGlu-γGlu-AEEA-γGlu-γGlu-C18 diacid])GSG, for which the IC50 in the experiment with human glucagon receptor [1] was 11.4 nM; in the experiment with human GLP-1 receptor [4], 1.7 nM. Further, in the experiment with human glucagon receptor [2], the “EC50 GlucagonR [pM]” value was found to be 158 pM. Moreover, the “EC50 GLP-1R [pM]” value in the experiment with human GLP-1 receptor [3] is 6 pM.

In the case of [Desaminohistidyl]GHGTFTSDVSRYLEEQAAREFIAWLLK([Gly-Ser-Glu-Gly-Ser-γGlu-γGlu-C18 diacid])T-NH2, the 50% inhibitory concentration (IC50) was determined as 9.6 nM in the experiment with human glucagon receptor [1] and 3.2 nM with human GLP-1 receptor [4]. Besides, the “EC50 GlucagonR [pM]” value with human glucagon receptor [2] amounted to 459 pM. The “EC50 GLP-1R [pM]” value with human GLP-1 receptor [3] came out at 8 pM.

Regarding [Desaminohistidyl][Aib]HGTFTSDVSKYLEEQAAREFIAWLLK([Ado-Ado-γGlu-γGlu-C14 diacid])T-NH2, the values for the 50% inhibitory concentration (IC50) in the experiment with human glucagon receptor [1] and with human GLP-1 receptor [4] were 3.7 nM and 1.5 nM, respectively. Also, the “EC50 GlucagonR [pM]” value with human glucagon receptor [2] was determined as 52.6 pM. The “EC50 GLP-1R [pM]” value in the experiment with human GLP-1 receptor [3] amounted to 12 pM.

On to [Desaminohistidyl][Aib]HGTFTSDVSKYLEEQAAREFIAWLLK([Ado-Ado-γGlu-γGlu-C16 diacid])T-NH2, for which the IC50 amounted to 4 nM in the experiment with human glucagon receptor [1] and 1.3 nM in the experiment with human GLP-1 receptor [4]. For the same molecule, in the experiment with human glucagon receptor [2], the “EC50 GlucagonR [pM]” value stood at 46.1 pM. In the experiment with human GLP-1 receptor [3], the “EC50 GLP-1R [pM]” value was found to be 60.7 pM.

Consider [Desaminohistidyl][Aib]HGTFTSDVSKYLEEQAAREFIAWLLK([Ado-Ado-γGlu-γGlu-C20 diacid])T-NH2, for which the IC50 with human glucagon receptor [1] was 10.1 nM; with human GLP-1 receptor [4], 0.4 nM. The “EC50 GlucagonR [pM]” value with human glucagon receptor [2] worked out at 917 pM. In the experiment with human GLP-1 receptor [3], the “EC50 GLP-1R [pM]” value turned out to be 62.9 pM.

Broadly, the IC50 is the concentration at which inhibition is half-maximal.
